Experimental data: patent US11541101B1, “LEMD3 antagonizes TGF-beta-driven Smad2/3 transcription in a stiffness-dependent fashion in both the nucleus and cytosol” (University of Virginia Patent Foundation, priority 2018, dated 2023)

Tests used:
Assay type in all cases: cell-based, human
[1] = test system: Smad2/3; experiment: V5-Smad2/3 PLA with recombinant LEMD3 / CTF
Protocol: In vitro PLA: Protein-protein PLA was per-formed with antibody pairs listed in Table 4 as described in (42) with the following modifications: cells were plated on FN-coated glass or hydrogels (Matrigen, Brea, Calif.). All primary antibody in-cubations were performed for 16-24 hours at 4 C and cells were counter-stained with 1:40 phalloidin-488 or phalloidin-546 in 1×PBS for 30 minutes at room temperature and/or further processed for IF imaging using the procedure recommended in Sigma's PLA Resource Center. For all recombinant LEMD3 and C-terminal fragment experiments, HFFs were electroporated as above and allowed to culture for 24 hours on 10 μg/mL fibronectin coated glass or hydrogels before fixation. For LEMD3-phospho-Smad2/3, LEMD3-Smad2/3+TGFβ and for Smad2/3-Smad4 PLA assays: cells were treated 90 minutes before fixation with 50 μg/mL for LEMD3- and CTF-Smad2/3 assays, 100 μg/mL TGFβ for LEMD3-phospho-Smad2/3 experiments and 500 μg/mL TGFβ for Smad2/3-Smad4 experiments. For FLAG post-staining of PLA processed tissues, cells were blocked with unlabelled AffiniPure donkey anti-rabbit antibodies (Jackson ImmunoResearch, West Grove, Pa.) at a 1:10 dilution in 1×PBS-T at room temperature for 1 hour before further IF processing with 1:1000 rabbit anti-FLAG (#F7425, Sigma-Aldrich, Darmstadt, Germany) for 1 hour in PBS-T at room temperature. Following three washes with PBS-T for 5 minutes, each sample was stained with 1:500 goat anti-rabbit 546 in PBS-T for 1 hour at room temperature, washed again and then counter-stained as above. For V5 post-staining of PLA processed samples, cells were incubated with 1:200 647 labelled anti-V5 antibody (R&D Systems, Minneapolis, Minn.) diluted in PBS-T at room tem-perature for 1 hour before washing three times in PBS-T for 5 minutes each and then counter-stained as above. Imaging and analysis were performed as described for high-resolution ex vivo PLA signals except that no tissue autofluorescence signal was measured or needed to be subtracted and, when appro-priate, other IF signal (e.g. FLAG) were measured in parallel. For cells on Matrigen HTS plates (FIGS. 2c & 2d), the confluence of cells prevented identifying individual cell boundaries. Instead the PLA signal was quantified as the PLA volume divided by the nuclear intensity for each image. Each data point represents at least 3 unique surfaces with at least 12 cells measured per surface. For Smad2/3-Smad4 experiments, only two independent hydrogels were analyzed for the “CTF 500 μg/mL” and “Neon 500 μg/mL” groups due to loss of hydrogels during processing. Each bar in FIG. 5D represents the mean with standard error of the mean for all the cells analyzed from that condition.

[2] = test system: Smad3 phosphorylation; experiment: phospho-Smad3 to total Smad3 ratio by western blot; conditions: electroporation of TGFβ dosed HFFs on tissue culture plastic
[3] = test system: PPM1α; experiment: PPM1α PLA; conditions: glass
Protocol: In vitro PLA: Protein-protein PLA was per-formed with antibody pairs listed in Table 4 as described in (42) with the following modifications: cells were plated on FN-coated glass or hydrogels (Matrigen, Brea, Calif.). All primary antibody in-cubations were performed for 16-24 hours at 4 C and cells were counter-stained with 1:40 phalloidin-488 or phalloidin-546 in 1×PBS for 30 minutes at room temperature and/or further processed for IF imaging using the procedure recommended in Sigma's PLA Resource Center. For all recombinant LEMD3 and C-terminal fragment experiments, HFFs were electroporated as above and allowed to culture for 24 hours on 10 μg/mL fibronectin coated glass or hydrogels before fixation. For LEMD3-phospho-Smad2/3, LEMD3-Smad2/3+TGFβ and for Smad2/3-Smad4 PLA assays: cells were treated 90 minutes before fixation with 50 μg/mL for LEMD3- and CTF-Smad2/3 assays, 100 μg/mL TGFβ for LEMD3-phospho-Smad2/3 experiments and 500 μg/mL TGFβ for Smad2/3-Smad4 experiments. […] Imaging and analysis were performed as described for high-resolution ex vivo PLA signals except that no tissue autofluorescence signal was measured or needed to be subtracted and, when appro-priate, other IF signal (e.g. FLAG) were measured in parallel. […] Instead the PLA signal was quantified as the PLA volume divided by the nuclear intensity for each image. Each data point represents at least 3 unique surfaces with at least 12 cells measured per surface. For Smad2/3-Smad4 experiments, only two independent hydrogels were analyzed for the “CTF 500 μg/mL” and “Neon 500 μg/mL” groups due to loss of hydrogels during processing. Each bar in FIG. 5D represents the mean with standard error of the mean for all the cells analyzed from that condition.

[4] = test system: Smad2/3-Smad4 complexes; experiment: Smad2/3-Smad4 PLA; conditions: over-expression, 500 μg/mL TGFβ, 1 kPa hydrogels, p=0.0081
Protocol: In vitro PLA: Protein-protein PLA was per-formed with antibody pairs listed in Table 4 as described in (42) with the following modifications: cells were plated on FN-coated glass or hydrogels (Matrigen, Brea, Calif.). All primary antibody in-cubations were performed for 16-24 hours at 4 C and cells were counter-stained with 1:40 phalloidin-488 or phalloidin-546 in 1×PBS for 30 minutes at room temperature and/or further processed for IF imaging using the procedure recommended in Sigma's PLA Resource Center. […] Imaging and analysis were performed as described for high-resolution ex vivo PLA signals except that no tissue autofluorescence signal was measured or needed to be subtracted and, when appro-priate, other IF signal (e.g. FLAG) were measured in parallel. […] Instead the PLA signal was quantified as the PLA volume divided by the nuclear intensity for each image. Each data point represents at least 3 unique surfaces with at least 12 cells measured per surface. For Smad2/3-Smad4 experiments, only two independent hydrogels were analyzed for the “CTF 500 μg/mL” and “Neon 500 μg/mL” groups due to loss of hydrogels during processing. Each bar in FIG. 5D represents the mean with standard error of the mean for all the cells analyzed from that condition.

B1: CTF: consensus C-terminal fragment of LEMD3 (SEQ ID NO: 25), expressed from pFLAG-LEMD3p.Δ21-669-V5 (protein, listed as Homo sapiens)
chain: MAAAAASAPQQLSDEELFSQRDSLIQPHDRKKMKKVWDRAVDFLAANESRVRTETRRIGGADFLVWRWIQPSASCDKILVIPSKVWQGQAFHLDRRNSPPNSLTPCLKIRNMFDPVMEIGDQWHLAIQEAILEKCSDNDGIVHIAVDKNSREGCVYVKCLSPEYAGKAFKALHGSWFDGKLVTVKYLRLDRYHHRFPQALTSNTPLKPSNKHMNSMSHLRLRTGLTNSQGSS
modifications: FLAG and V5 tags
- overall CTF-Smad2/3 interactions versus electroporation control fibroblasts ([1]; 1 kPa p<0.0001, 25 kPa p=0.0227): significantly more overall CTF-Smad2/3 interactions
- CTF-Smad2/3 interactions, cytoplasm ([1]; 1 kPa relative to 25 kPa hydrogels, p<0.0001): significantly more Smad2/3 interactions
- CTF-Smad2/3 interactions overall ([1]; 1 kPa relative to 25 kPa hydrogels, p<0.0001, FIG. 5B): significantly more Smad2/3 interactions
- CTF-Smad2/3 interactions, nucleus ([1]; 1 kPa relative to 25 kPa hydrogels, p=0.0082): significantly more Smad2/3 interactions
- fraction of CTF-Smad2/3 interactions in the nucleus ([1]; depending on stiffness, FIG. 5B): 40-55%
- pSmad3/Smad3 ratio [2]: decreased the pSmad3/Smad3 ratio
- PPM1α interactions, total ([3]; vs Neon Only control, p<0.0001): bound PPM1α
- PPM1α interactions, cytoplasm ([3]; vs control, p=0.0081): bound PPM1α significantly above background
- PPM1α interactions, nucleus ([3]; vs control, p=0.2569): only endogenous LEMD3 was found to significantly bind PPM1α in the nucleus
- TGFβ-driven increase in Smad2/3-Smad4 complexes [4]: significantly abrogated
